What was measured:
MCF-7 cells = assay: Cell death according to presence of serum and protein treatment time (Co-h); format: cell-based, human; conditions: MCF-7, protein 10 μM, serum-free media or serum-containing media, Co-h 150 μM
Description: MCF-7 cells were seeded at 5×10^5 cells/mL in a 96-well plate (SPL Cell Culture Plate, 96 well (SPL, Cat #30096)), and cultured at 37° C. for 24 hours (overnight). After the culture for 24 hours, the cells were washed with FBS & Phenol red-free media (RPMI, Well Gene., Korea, Cat #LM011-02), and 100 μL of an FBS-free medium or FBS media (RPMI), containing purified protein (final concentration: 10 μM), was added, followed by reaction at 37° C. over time.
After the reaction, the cells were washed with FBS & Phenol red-free media (RPMI), 100 μL of FBS & Phenol red-free media (RPMI) containing a Co-h substrate solution (final concentration: 150 μM) and SYTOX Green (final concentration: 261 nM) staining DNA of dead cells was added, followed by reaction at 37° C. for 30 minutes.
After the reaction, 10 μL of DAPI staining DNA of live cells was added, followed by reaction for 5 minutes. Cell death was confirmed by observing KillerRed, SYTOX Green and DAPI fluorescence using a confocal microscope.

[1] = Bioluminescence assay of purified proteins with Co-h substrate (BRET); format: physicochemical; conditions: protein 1 μM, Co-h 50 μM, 1×PBS
Description: In addition, 100 μL of buffer (1×PBS) containing the protein purified in Example 1 (final concentration: 1 μM) was dispensed into a 96-well plate (SPL Cell Culture Plate, 96 well (SPL, Cat #30196)), and bioluminescence assay was then performed using 50 μL of buffer (1×PBS) containing a Co-h substrate solution (final concentration: 50 μM), which is a wild-type 2-deoxy derivative. Bioluminescence intensity was immediately measured at a wavelength of 300 to 800 nm using a Thermo Scientific™ Varioskan™ Flash Multimode Reader.

[2] = Fluorescence assay of purified proteins (excitation/emission); format: physicochemical; conditions: protein 10 μM in 1×PBS
Description: 100 μL of buffer (1×PBS) containing the protein purified in Example 1 (final concentration: 10 μM) was dispensed into a 96-well plate (SPL Cell Culture Plate, 96 well (SPL, Cat #32096)). Afterward, a fluorescence signal level was detected by fluorescence assay using a Thermo Scientific™ Varioskan™ Flash Multimode Reader.

superoxide = assay: ROS generation: superoxide measured by decrease of DHE fluorescence; format: biochemical
Description: A ROS-generating effect of the RLuc8.6-KR protein was confirmed using 100 μL of buffer (50 mM HEPES-KOH, 24° C., pH 7.4) containing RLuc8.6-KR protein (final concentration: 10 μM), dihydroethidium (DHE, Sigma Aldrich, USA; final concentration of 100 μM) whose fluorescence intensity decreases in the presence of superoxide and a Co-h substrate solution. The rate of decrease in fluorescence intensity was measured at the excitation wavelength of 370 nm and the emission wavelength of 420 nm of DHE using a plate reader.
A ROS-generating effect of RLuc8.6-KR protein was measured using RLuc8.6-KR protein (final concentration: 10 μM) and DHE (final concentration: 100 μM) whose fluorescence intensity decreases in the presence of superoxide, and
Here, the active oxygen generation rate of each protein was measured using 100 μL of buffer (50 mM HEPES-KOH, 24° C., pH 7.4) containing FMN (final concentration: 150 μM) and a Co-h substrate solution (final concentration: 150 μM).
The rate of decrease in fluorescence intensity was measured at the excitation wavelength of 370 nm and the emission wavelength of 420 nm of DHE using a plate reader. In addition, the rate of decrease in fluorescence intensity was measured at the excitation wavelength of 380 nm and the emission wavelength of 430 nm of ADPA using a plate reader.
(§1) A ROS generation rate was measured using 100 μL of buffer (50 mM HEPES-KOH, 24° C., pH 7.4) containing the KR protein, RLuc8.6-KR protein (final concentration: 10 μM) and DHE (final concentration: 100 μM) whose fluorescence intensity decreases in the presence of superoxide.
A ROS generation rate was measured using 100 μL of buffer (50 mM HEPES-KOH, 24° C., pH 7.4) containing MS, RLuc8-MS (final concentration: 10 μM), DHE (final concentration: 100 μM) whose fluorescence intensity decreases in the presence of superoxide and FMN (final concentration: 150 μM).
After irradiation with light (referred to as +LED Light) at 10 mW/cm^2 for 30 minutes, the rate of decrease in fluorescence intensity was measured at the excitation wavelength of 370 nm and the emission wavelength of 420 nm of DHE using a plate reader.
as §1, with “μM),” for “μM) and”, “superoxide and a Co-h substrate solution (final concentration: 150 μM).” for “superoxide.”
A ROS generation rate was measured using 100 μL of buffer (50 mM HEPES-KOH, 24° C., pH 7.4) containing MS, RLuc8-MS (final concentration: 10 μM), DHE (final concentration: 100 μM) whose fluorescence intensity decreases in the presence of superoxide, FMN (final concentration: 150 μM) and a Co-h substrate solution (final concentration: 150 μM). The rate of decreasing fluorescence intensity was measured at an excitation wavelength of 370 nm and an emission wavelength of 420 nm of DHE using a plate reader.
A ROS generation rate was measured by reaction of 100 μL of buffer (50 mM HEPES-KOH, 24° C., pH 7.4) containing RLuc8.6-KR protein (final concentration: 10 μM), DHE (final concentration: 100 μM) whose fluorescence intensity decreases in the presence of superoxide, ROS scavenger (SOD (superoxide scavenger, final concentration 800U/ml), sodium azide (Singlet oxygen scavenger; final concentration: 100 mM) and D-mannitol (hydroxyl radical scavenger; final concentration: 100 mM), respectively) for 30 minutes. […]

B1: RLuc8.6-KR-LP: fusion protein of RLuc8.6, KillerRed and lead peptide WLEAAYQRFL, 71 kDa (protein)
chain: MRGSHHHHHHGMASMTGGQQMGRDLYDDDDKDPMASKVYDPEQRKRMITGPQWWARCKQMNVLDSFINYYDSEKHAENAVIFLHGNATSSYLWRHVVPHIEPVARCIIPDLIGMGKSGKSGNGSYRLLDHYKYLTAWFELLNLPKKIIFVGHDWGSALAFHYAYEHQDRIKAIVHMESVVDVIESWMGWPDIEEELALIKSEEGEKMVLENNFFVETLLPSKIMRKLEPEEFAAYLEPFKEKGEVRRPTLSWPREIPLVKGGKPDVVQIVRNYNAYLRASDDLPKLFIESDPGFFYNAIVEGAKKFPNTEFVKVKGLHFLQEDAPDEMGKYIKSFVERVLKNEQEFGGGMLCCMRRTKQVEKNDEDQKISEGGPALFQSDMTFKIFIDGEVNGQKFTIVADGSSKFPHGDFNVHAVCETGKLPMSWKPICHLIQYGEPFFARYPDGISHFAQECFPEGLSIDRTVRFENDGTMTSHHTYELDDTCVVSRITVNCDGFQPDGPIMRDQLVDILPNETHMFPHGPNAVRQLAFIGFTTADGGLMMGHFDSKMTFNGSRAIEIPGPHFVTIITKQMRDTSDKRDHVCQREVAYAHSVPRITSAIGSDEDGGGWLEAAYQRFL
modifications: pRSET-RLuc8.6-KillerRed-Lead peptide
- protein treatment time from which the number of cells stained with SYTOX Green increased (MCF-7 cells): ~4 h

B2: KR: first protein KillerRed, ROS-generating protein (superoxide), expressed from pRSET-KillerRed, 31 kDa (protein)
chain: MRGSHHHHHHGMASMTGGQQMGRDLYDDDDKDPMLCCMRRTKQVEKNDEDQKISEGGPALFQSDMTFKIFIDGEVNGQKFTIVADGSSKFPHGDFNVHAVCETGKLPMSWKPICHLIQYGEPFFARYPDGISHFAQECFPEGLSIDRTVRFENDGTMTSHHTYELDDTCVVSRITVNCDGFQPDGPIMRDQLVDILPNETHMFPHGPNAVRQLAFIGFTTADGGLMMGHFDSKMTFNGSRAIEIPGPHFVTIITKQMRDTSDKRDHVCQREVAYAHSVPRITSAIGSDED
modifications: pRSET-KillerRed
notes: first protein KillerRed, ROS-generating protein (superoxide), expressed from pRSET-KillerRed, 31 kDa
- emission in bioluminescence assay (BRET) [1]: 610 nm
- emission wavelength (fluorescence) [2]: 610 nm
- excitation wavelength [2]: 585 nm
- superoxide generation rate after light irradiation (superoxide; 10 mW/cm^2, 30 minutes, no substrate, protein 10 μM, DHE): higher superoxide generation rate
- superoxide generation rate by Co-h reaction after ROS scavenger treatment (superoxide; RLuc8.6-KR 10 μM, Co-h 150 μM 30 minutes, SOD 800 U/ml, sodium azide 100 mM or D-mannitol 100 mM): lowest when SOD was treated

B3: RLuc8.6-KR: fusion protein of RLuc8.6 and KillerRed without lead peptide, 69 kDa (protein)
chain: MRGSHHHHHHGMASMTGGQQMGRDLYDDDDKDPMASKVYDPEQRKRMITGPQWWARCKQMNVLDSFINYYDSEKHAENAVIFLHGNATSSYLWRHVVPHIEPVARCIIPDLIGMGKSGKSGNGSYRLLDHYKYLTAWFELLNLPKKIIFVGHDWGSALAFHYAYEHQDRIKAIVHMESVVDVIESWMGWPDIEEELALIKSEEGEKMVLENNFFVETLLPSKIMRKLEPEEFAAYLEPFKEKGEVRRPTLSWPREIPLVKGGKPDVVQIVRNYNAYLRASDDLPKLFIESDPGFFYNAIVEGAKKFPNTEFVKVKGLHFLQEDAPDEMGKYIKSFVERVLKNEQEFGGGMLCCMRRTKQVEKNDEDQKISEGGPALFQSDMTFKIFIDGEVNGQKFTIVADGSSKFPHGDFNVHAVCETGKLPMSWKPICHLIQYGEPFFARYPDGISHFAQECFPEGLSIDRTVRFENDGTMTSHHTYELDDTCVVSRITVNCDGFQPDGPIMRDQLVDILPNETHMFPHGPNAVRQLAFIGFTTADGGLMMGHFDSKMTFNGSRAIEIPGPHFVTIITKQMRDTSDKRDHVCQREVAYAHSVPRITSAIGSDED
modifications: pRSET-RLuc8.6-KillerRed
- superoxide generation rate after Co-h substrate reaction (superoxide; Co-h 150 μM, 30-min reaction, without light irradiation, protein 10 μM, DHE): highest superoxide generation rate
- reaction time with Co-h until which the superoxide generation rate increased, then constantly maintained (superoxide; protein 10 μM, Co-h 150 μM, DHE): 30 min
- Co-h concentration until which the superoxide generation rate increased, then constantly maintained (superoxide; protein 10 μM, DHE 100 μM, substrate reaction time 5 minutes): 150 µM
